According to article doi:10.1101/2022.03.11.483938v2:

Legend:
purified protein [1] = substrate: Nc1ncnc2c1ncn2[C@@H]1O[C@H](COP(=O)(O)O)[C@@H](O)[C@H]1O; assay: purified protein; details: hydrolysis rate gradually decreased under the selected conditions
purified protein [2] = substrate: Nc1ncnc2c1ncn2[C@H]1C[C@H](O)[C@@H](COP(=O)(O)O)O1; assay: purified protein; details: constant hydrolysis rate

B1: SiE5NT (ecto-5'-nucleotidase) (Serendipita indica DSM 11827) (protein)
chain: KVDSLVSERALQKRFVDANGNYNVTIVHTNDVHAHLDQWRAGRGTDCTPGSECISGYARIKQKVSELRQSIQDPIFLNAGDEFQGTLFFTYYGGEKISYAINEVGYDVFTLGNHEFDRGQGELAAFLKNLTFPVVCANFKTNDTAMNALNIQPYTIIEKHQLGIIGVITPDTKGTSSGAGPGTEFSDPVQAVQKAVDELQAKNITRIIALTHIGYDKDIELAQKTKGVDLIVGGHSHTLLGNFTNAMGSYPTTAKNLDGEEVFIVTSYRWGEILGKMNIAFDASGKIVSYEGEPLRLTNTTQQDPKLQAEVNEWRQPFDAMAQVVVGTSSVVLDQSICQFSECTLGNVITDAMYEYRKNAGGNVDFALINSGGIRASISEGTVTQGDILTSFPFMNGVVDLTWTGKQLLDIFEGVVSKYSTLSHHATTSFIQVSKQVKFSWNPNNVNQTRLITLEIGGQQVDVNKNYTMVTLDFLASNGDYLWGTRTDFAALDTLDVVLASYFKAHSPVGASIEGRITNSTSTTQQLPGKGSSGGSGGASALIVSGLSAGMMLLAGMMLV
Work on B1 yielded a Km (purified protein [1]) of 15.9 µM, a kcat (purified protein [1]) of 1.1 s⁻¹ and a Km (purified protein [2]) of 361.6 µM. For the same protein, the kcat (purified protein [2]) was 11.9 s⁻¹.
